Target: CD81 (UniProt P60033)
Assay: cell-based or functional assay

Sequence of UniProt P60033 (P60033 whole entry): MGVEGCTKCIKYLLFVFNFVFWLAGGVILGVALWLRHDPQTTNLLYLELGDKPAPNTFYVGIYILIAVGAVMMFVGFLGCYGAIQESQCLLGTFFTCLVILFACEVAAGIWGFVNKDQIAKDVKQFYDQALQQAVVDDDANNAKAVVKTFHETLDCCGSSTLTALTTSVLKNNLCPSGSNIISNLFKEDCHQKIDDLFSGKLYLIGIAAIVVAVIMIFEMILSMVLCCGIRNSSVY

degradation of total CD81, Western blot of HepG2 cells: 25%
Substance: PCSK9 (proprotein convertase subtilisin/kexin type 9) (from UniProt Q8NBP7 31-692) (enzyme)

Reference: US20170224816A1
